Values quoted from earlier work in publication PMC8395526.

Biological target: erbB2 (Homo sapiens) (UniProt P04626)
Test: SPR

Kd: 1890 nM
Substance: erbB2-SbdIV subdomain IV (from UniProt P04626)
